Legend:
GST-ETO [1] = molecular target: GST-ETO (UniProt Q06455); experiment: pull-down
GST-ETO [2] = molecular target: T1, GST-ETO (UniProt Q06455-2 1-577); experiment: pull-down
T1 sequence (looked up): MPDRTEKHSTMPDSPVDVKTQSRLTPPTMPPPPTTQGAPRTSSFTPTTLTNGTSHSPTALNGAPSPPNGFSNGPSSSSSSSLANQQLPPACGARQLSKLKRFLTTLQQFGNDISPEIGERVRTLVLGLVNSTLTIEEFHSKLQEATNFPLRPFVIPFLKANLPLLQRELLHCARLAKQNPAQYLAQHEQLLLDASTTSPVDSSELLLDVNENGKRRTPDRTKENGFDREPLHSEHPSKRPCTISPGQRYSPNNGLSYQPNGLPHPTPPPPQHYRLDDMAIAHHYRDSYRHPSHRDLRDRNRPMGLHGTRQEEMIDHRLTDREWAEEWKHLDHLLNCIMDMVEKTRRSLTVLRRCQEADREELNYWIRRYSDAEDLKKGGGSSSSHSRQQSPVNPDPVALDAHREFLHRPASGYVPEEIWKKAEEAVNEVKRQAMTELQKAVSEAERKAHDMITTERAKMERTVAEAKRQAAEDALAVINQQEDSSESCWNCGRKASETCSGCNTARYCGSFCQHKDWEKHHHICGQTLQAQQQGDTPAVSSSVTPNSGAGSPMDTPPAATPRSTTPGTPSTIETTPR

| Molecule | fold reduction of binding relative to E2A-AD (GST-ETO [1]) | fold reduction of binding relative to E2A-AD (GST-ETO [2]) |
| --- | --- | --- |
| isolated DES domain of E2A, in vitro translated Gal4-DBD fusion (domain or fragment) | 4 fold | – |
| E2A-AD1 (amino acids 1-90), in vitro translated (domain or fragment, UniProt P15923 1-90, looked up, 35S label) MNQPQRMAPVGTDKELSDLLDFSMMFPLPVTNGKGRPASLAGAQFGGSGLEDRPSSGSWGSGDQSSSSFDPSRTFSEGTHFTESHSSLSS | – | ~24 fold |

— paper PMC3874172 (Nucleic Acids Research, 2013)
